Test results as given in US20140127211A1.

Columns and labels:
[1] = target: full-length human Notch3 expressed on the cell surface (human) (UniProt Q9UM47); test: flow cytometry, negative control antibody, OVCAR3 cells
[2] = target: full-length human Notch3 expressed on the cell surface (human) (UniProt Q9UM47); test: flow cytometry, negative control antibody, HCC2429 cells
[3] = target: full-length human Notch3 expressed on the cell surface (human) (UniProt Q9UM47); test: flow cytometry, negative control antibody, MDA-MB-468 cells
[4] = target: full-length human Notch3 expressed on the cell surface (human) (UniProt Q9UM47); test: flow cytometry, negative control antibody, U2OS/hNotch3 cells
[5] = target: full-length human Notch3 expressed on the cell surface (human) (UniProt Q9UM47); test: flow cytometry, negative control antibody, MDA-MB-468/hNotch3 cells

Chain of full-length human Notch3 expressed on the cell surface (human) (Q9UM47 40-2321): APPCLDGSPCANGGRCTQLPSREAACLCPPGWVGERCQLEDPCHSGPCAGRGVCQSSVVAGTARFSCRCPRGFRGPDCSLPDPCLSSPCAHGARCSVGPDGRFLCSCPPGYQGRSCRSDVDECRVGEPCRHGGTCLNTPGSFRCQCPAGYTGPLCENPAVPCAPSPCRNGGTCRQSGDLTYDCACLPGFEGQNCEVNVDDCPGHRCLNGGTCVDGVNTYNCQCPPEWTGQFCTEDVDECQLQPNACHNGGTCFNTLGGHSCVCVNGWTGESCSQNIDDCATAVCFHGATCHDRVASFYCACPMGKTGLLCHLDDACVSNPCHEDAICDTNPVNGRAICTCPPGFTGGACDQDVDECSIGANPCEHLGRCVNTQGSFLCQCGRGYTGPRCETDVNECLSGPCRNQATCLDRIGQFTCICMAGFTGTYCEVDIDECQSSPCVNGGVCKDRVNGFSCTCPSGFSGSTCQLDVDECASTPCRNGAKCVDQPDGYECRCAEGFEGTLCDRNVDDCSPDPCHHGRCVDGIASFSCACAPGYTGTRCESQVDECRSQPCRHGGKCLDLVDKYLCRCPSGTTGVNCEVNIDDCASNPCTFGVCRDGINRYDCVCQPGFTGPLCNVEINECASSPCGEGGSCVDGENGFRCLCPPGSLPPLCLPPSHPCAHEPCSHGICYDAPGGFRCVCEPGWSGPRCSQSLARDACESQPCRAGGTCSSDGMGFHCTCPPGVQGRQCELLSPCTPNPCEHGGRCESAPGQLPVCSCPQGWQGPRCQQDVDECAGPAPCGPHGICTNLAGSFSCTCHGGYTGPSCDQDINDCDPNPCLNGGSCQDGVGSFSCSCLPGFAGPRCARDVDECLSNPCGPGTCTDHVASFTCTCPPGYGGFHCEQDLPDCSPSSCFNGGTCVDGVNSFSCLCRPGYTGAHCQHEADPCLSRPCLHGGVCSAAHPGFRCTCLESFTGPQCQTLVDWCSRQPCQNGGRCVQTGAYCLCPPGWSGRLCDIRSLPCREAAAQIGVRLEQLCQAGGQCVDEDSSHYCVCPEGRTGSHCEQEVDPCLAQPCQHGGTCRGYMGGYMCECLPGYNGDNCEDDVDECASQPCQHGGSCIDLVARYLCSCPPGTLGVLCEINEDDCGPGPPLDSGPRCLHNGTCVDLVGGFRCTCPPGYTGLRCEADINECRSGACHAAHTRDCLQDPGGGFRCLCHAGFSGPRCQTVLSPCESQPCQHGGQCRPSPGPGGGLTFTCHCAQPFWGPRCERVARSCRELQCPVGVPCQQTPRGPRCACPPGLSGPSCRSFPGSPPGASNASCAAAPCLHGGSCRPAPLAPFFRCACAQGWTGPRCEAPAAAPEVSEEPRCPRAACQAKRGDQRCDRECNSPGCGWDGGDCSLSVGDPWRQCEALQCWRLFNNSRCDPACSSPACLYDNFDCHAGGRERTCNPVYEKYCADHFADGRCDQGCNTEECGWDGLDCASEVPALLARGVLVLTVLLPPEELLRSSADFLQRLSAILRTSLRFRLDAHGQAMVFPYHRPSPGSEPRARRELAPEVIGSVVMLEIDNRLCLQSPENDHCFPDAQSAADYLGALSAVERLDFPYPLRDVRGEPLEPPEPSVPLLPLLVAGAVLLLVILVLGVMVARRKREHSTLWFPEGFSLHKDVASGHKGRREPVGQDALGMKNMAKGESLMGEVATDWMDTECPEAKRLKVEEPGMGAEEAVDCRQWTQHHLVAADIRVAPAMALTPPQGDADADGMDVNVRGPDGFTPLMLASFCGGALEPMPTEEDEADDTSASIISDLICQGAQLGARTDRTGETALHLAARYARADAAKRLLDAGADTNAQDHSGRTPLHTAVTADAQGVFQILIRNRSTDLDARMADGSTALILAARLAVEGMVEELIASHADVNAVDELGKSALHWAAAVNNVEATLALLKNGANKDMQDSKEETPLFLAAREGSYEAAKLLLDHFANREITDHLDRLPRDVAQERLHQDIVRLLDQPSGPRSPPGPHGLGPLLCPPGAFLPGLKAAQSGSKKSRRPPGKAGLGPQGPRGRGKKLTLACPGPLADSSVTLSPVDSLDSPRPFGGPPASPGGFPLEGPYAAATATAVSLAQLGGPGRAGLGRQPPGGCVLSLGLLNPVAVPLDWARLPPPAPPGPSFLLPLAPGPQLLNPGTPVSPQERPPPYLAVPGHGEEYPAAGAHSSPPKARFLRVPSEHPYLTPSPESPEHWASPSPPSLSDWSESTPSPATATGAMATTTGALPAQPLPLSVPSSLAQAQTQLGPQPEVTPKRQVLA

## huNeg8.8 negative control antibody
[1]
  MFI: 5 MFI
[2]
  MFI: 3 MFI
[3]
  MFI: 6 MFI
[4]
  MFI: 6 MFI
[5]
  MFI: 6 MFI
